In the supplement of paper PMC10567573:
± gives the standard deviation.

Test: protein stability index of a GFP-peptide fusion (GPS, HEK-293T) (PSI 1-6); higher = more stable
[1] = treatment: DMSO, c terminus: a fixed tail appended
[2] = treatment: MLN4924 1 uM, 8 h, c terminus: a fixed tail appended
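Also: 24-mer peptide tiles fused after GFP, lentivirally expressed, FACS-sorted into six equal bins by GFP/DsRed ratio, decoded by Illumina sequencing, PSI is the read-weighted mean bin number.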

Sequence | protein stability index [1] | protein stability index [2] | protein stability index (treatment: DMSO, c terminus: native) | protein stability index (treatment: MLN4924 1 uM, 8 h, c terminus: native)
DRFSGETSAAALSPMSAATLGGLN [SMTNL2] | 4.46 ± 0.14 | 4.21 ± 0.24 |  | 
HISSCKLGPQVSLDPMKNVTCENG [LOXL2] | 4.15 ± 0.39 | 4.14 ± 0.49 |  | 
EDEDPEEMPKSSDFLIHPPERSDL [PCDHGC5] | 5.41 ± 0.13 | 5.4 ± 0.24 |  | 
YSHRETVNGSWYIQDLCEMLGKYG [CASP6] | 1.93 ± 0.39 | 2.1 ± 0.35 |  | 
ETIPLTAEKLCIYTDNSIRPEELL [CCND1] | 3.59 ± 0.41 | 3.94 ± 0.34 |  | 
TFPASVLAPVPTHSTVSELSRSPV [DUSP5] | 3.92 ± 0.082 | 4.14 ± 0.39 |  | 
TDHQTPPTSPVQGTTPQISPSTLI [HDAC6] | 4.93 ± 0.16 | 4.86 ± 0.27 |  | 
INRVSTCYSEEITVCGDLHGQLDD [PPEF2] | 4.24 ± 0.33 | 3.96 ± 0.27 |  | 
PIDFEESRFYEIHARARDQGQPAM [PCDHGC5] | 4.3 ± 0.2 | 4.38 ± 0.21 |  | 
CRELGYVEAKSWTASSSYGKGEGP [LOXL2] | 3.44 ± 0.41 | 3.45 ± 0.37 |  | 
ANTTPSGKSVSSSSSVETGPSVSE [SPATS1] | 5.32 ± 0.23 | 5.31 ± 0.23 |  | 
LEEQFALEAGGYQAGAARLEEELR [PRPH] | 5.35 ± 0.49 | 5.62 ± 0.16 |  | 
KLIKCDEIQVDSEEPVFEAVINWV [KLHL12] | 2.15 ± 0.26 | 2.4 ± 0.36 |  | 
PDLTQAPSSLMETLEQHLNTLEGK [SNAP91] | 4.77 ± 0.35 | 5.08 ± 0.21 |  | 
TQPGIRRARDKALSGGKRKETLV [NET1] |  |  | 4.29 ± 0.3 | 4.15 ± 0.38
SALASDRFNLILADTNSDRLFTVN [DCAF4] | 2.61 ± 0.18 | 2.69 ± 0.32 |  | 
MRLSWSVAQGPFDSFVVQYEDTNG [TNXB] | 2.26 ± 0.17 | 2.21 ± 0.12 |  | 
RMVPALPPKRMLGADREFIEARRR [SNX8] | 3.96 ± 0.29 | 4.17 ± 0.18 |  | 
EVHFLHEESILERVQQHIESKLLG [MLH1] | 2.98 ± 0.19 | 3.19 ± 0.24 |  | 
CQYLMATFVNVYIASFIRGPNPSK [CDS2] | 3.67 ± 0.3 | 3.4 ± 0.45 |  | 
RILQEKLDQPVSAPPSPRDISMEI [CCDC6] | 3.68 ± 0.33 | 3.87 ± 0.25 |  | 
EPPTEAASREENQAGPEATTSDPQ [PALM] | 5.61 ± 0.26 | 5.49 ± 0.3 |  | 
GYEVAAAQGPNKPGYLVGRNNANG [CPN1] | 4.2 ± 0.14 | 4.32 ± 0.21 |  | 

Sequence | protein stability index [1] | protein stability index [2] | protein stability index (treatment: DMSO, c terminus: native) | protein stability index (treatment: MLN4924 1 uM, 8 h, c terminus: native)
AAPGVDLTRVLAEMREQYEAMAEK [KRT15] | 4.57 ± 0.32 | 4.35 ± 0.086 |  | 
SYLIEKVKRKKNVLRLCCKKLKIF [PRAME] | 3.23 ± 0.36 | 3.22 ± 0.28 |  | 
ACTLTVFPPEETTPSPSRESPLSA [KLHL13] | 4.35 ± 0.32 | 4.45 ± 0.15 |  | 
QVHDDDLLSSSEEECKDRERPMYG [EMD] | 5.49 ± 0.22 | 5.41 ± 0.13 |  | 
DNVRSLKVESGAWIGYEHTSFCGQ [CRYBA1] | 3.14 ± 0.2 | 3.07 ± 0.22 |  | 
PVLLLQITVGLVFLCLQYRLRGKL [MOG] | 3.23 ± 0.36 | 3.17 ± 0.25 |  | 
DAEMELRAKEEERLNKLRLESEGS [HACD3] | 5.56 ± 0.28 | 5.3 ± 0.24 |  | 
LHSGLVHGLAFWFDVAFIGSIMTV [CARM1] | 3.87 ± 0.46 | 3.56 ± 1.3 |  | 
TKKRKLGKNPDVDTSFLPDRDREE [FAM50A] | 5.18 ± 0.14 | 5.23 ± 0.41 |  | 
ILRKLPQQREKLSLIRKHAQTFIA [CCND2] | 2.3 ± 0.14 | 2.42 ± 0.41 |  | 
MRDQYEQMAEKNRRDAETWFLSKT [KRT16] | 4.29 ± 0.089 | 4.31 ± 0.12 |  | 
ASSGQHHDFLSDLFSDDYGGKNCK [CEBPB] | 4.54 ± 0.35 | 4.66 ± 0.45 |  | 
LGLDDFESLKVIGRGAFGEVRLVQ [STK38L] | 3.55 ± 0.58 | 3.38 ± 0.33 |  | 
EHVFDLILELYNIDSHLLLSVLPQ [PDS5B] | 2.92 ± 0.47 | 2.85 ± 0.72 |  | 
AALAVNTSILSRLPPEALTAPSGG [RNF208] | 3.44 ± 0.24 | 3.45 ± 0.14 |  | 
LLPEKAFSDIPSPYLRGTIKMMQA [GFOD1] | 2.45 ± 0.23 | 2.81 ± 0.44 |  | 
VNPTGNLPMWSNQTWNNSTWSNQT [NANOGP8] | 2.75 ± 0.2 | 2.98 ± 0.35 |  | 
RPWRAGVLAEGDNASRSLYPDAED [PSD2] | 5.16 ± 0.2 | 5.05 ± 0.16 |  | 
TWKQELLKLMDRHKKDCAREKPFK [ZNF75A] | 2.69 ± 0.25 | 2.88 ± 0.3 |  | 
EVFIEWGISAKVFGATTNYGKDIV [ZBED1] | 2.35 ± 0.64 | 2.44 ± 0.3 |  | 
FSTSKWNHLLHHFVIGHLKGAPAS [FADS1] | 2.65 ± 0.67 | 2.17 ± 0.38 |  | 
HIPSQEVPGTQVGQGGKLWDPSVQ [ZNF263] | 4.35 ± 0.12 | 4.44 ± 0.24 |  | 
VAGDCLDEKQCKQCANKVLQHMKA [LRRC59] | 3.74 ± 0.14 | 3.9 ± 0.43 |  | 

Sequence | protein stability index [1] | protein stability index [2] | protein stability index (treatment: DMSO, c terminus: native) | protein stability index (treatment: MLN4924 1 uM, 8 h, c terminus: native)
GGLEHVPSSSSIHNGDMEKILLDA [BNIP3L] | 4.85 ± 0.23 | 4.68 ± 0.61 |  | 
NRVFSLQDLCCRAIVSCTPVHLID [RAB40C] | 2.53 ± 0.26 | 2.35 ± 0.27 |  | 
RQPVSFHRVKLTNSTLDPHGHLIL [TBX6] | 2.27 ± 0.16 | 2.27 ± 0.34 |  | 
GEAQPGLPQEDPSTSQGCAQPQGA [FEM1A] | 5.36 ± 0.21 | 5.51 ± 0.13 |  | 
SGSQMSHNAVTSHQRPGWPGQPHS [NCF4] | 3.95 ± 0.34 | 3.94 ± 0.29 |  | 
TLHNAQTQEPIFTFTASFSGKVFP [TRIM15] | 2.49 ± 0.23 | 2.56 ± 0.3 |  | 
HMNRLQSQRAMLLQGTESLNRATQ [VTI1B] | 4.12 ± 0.12 | 3.895 ± 0.03 |  | 
FRGDDGIFDDNFIEERKQGLEQFI [SNX3] | 3.28 ± 0.18 | 3.76 ± 0.66 |  | 
FKTIEELRDKIMATTIDNSRVILE [KRT15] | 2.54 ± 0.28 | 2.65 ± 0.26 |  | 
CAPYDSRLLGSARPELGAALGIYG [IRX6] | 2.56 ± 0.37 | 2.13 ± 0.55 |  | 
HISTFINELDSGFRLLNLKNDSLR [TSN] | 2.23 ± 0.13 | 2.1 ± 0.25 |  | 
GAVLALVAIFIMSLNKRHSSGDGN [MFSD9] | 3 ± 0.21 | 3.43 ± 0.59 |  | 
YAMKYMNKQKCVERNEVRNVFKEL [STK32A] | 2.07 ± 0.41 | 2.24 ± 0.62 |  | 
MNCLPSNRTLWRLDLAGNNIPGDV [LRRC45] | 2.75 ± 0.37 | 2.86 ± 0.4 |  | 
MEEQREALRKIIKTLAVKNEEIQS [FSD1] | 3.15 ± 0.1 | 3.16 ± 0.27 |  | 
QGPMSQRRENYGVPPRRATISSWR [RBMY1A1] | 3.68 ± 0.22 | 3.57 ± 0.36 |  | 
IIPTPDEEEKILRVKLEEDPDGEE [ZNF24] | 5.44 ± 0.4 | 5.52 ± 0.57 |  | 
TIGVEFATRSIQVDGKTIKAQIWD [RAB11A] | 3.04 ± 0.2 | 3.08 ± 0.32 |  | 
NWPARQRGTHAVVGVATARAPLHS [SPSB4] | 3.52 ± 0.19 | 3.57 ± 0.27 |  | 
PLLPAPPKTPMDGADCGIQWWNAV [LYSMD4] | 3.48 ± 0.42 | 3.62 ± 0.21 |  | 
GQQDQVKLHDFFSYLMDHFIPSSH [PPEF2] | 2.81 ± 0.57 | 2.89 ± 0.71 |  | 
DRHGVYGLQRNLLVENIIDIYKQE [TRIM63] | 3.2 ± 0.32 | 3.39 ± 0.24 |  | 
DSTTTRQRRSRQNPQSPPQDSSVT [HDAC6] | 5.13 ± 0.24 | 5.53 ± 0.098 |  | 

Sequence | protein stability index [1] | protein stability index [2] | protein stability index (treatment: DMSO, c terminus: native) | protein stability index (treatment: MLN4924 1 uM, 8 h, c terminus: native)
LLRFGVPSPSTLEPHPRPLLQREL [TNXB] | 3.08 ± 0.18 | 2.93 ± 0.23 |  | 
YSHSSTRDGRRDRYSSDTTPLLNG [GOSR1] | 4.28 ± 0.4 | 4.31 ± 0.11 |  | 
NLGVENMNHYKKTTLEIHNTEERQ [PTPN9] | 4.4 ± 0.2 | 4.8 ± 0.28 |  | 
ESLMKDGDKNNDGRIDFDEFLKMM [TNNC2] | 4.53 ± 0.1 | 4.55 ± 0.31 |  | 
RDVYLPAGKWRSYKGELFDKTPVL [MYORG] | 2.32 ± 0.3 | 2.51 ± 0.18 |  | 
KLHKSQLSQALNGLSDRAKEAKEF [TRIM9] | 4.11 ± 0.15 | 4.17 ± 0.22 |  | 
LTCEFNNNHESLDEELHLLIISCR [FBXO39] | 2.27 ± 0.41 | 2.41 ± 0.39 |  | 
KPHFESSTVKTETISFGSVSPGGV [EPB41L3] | 4.08 ± 0.23 | 4.09 ± 0.11 |  | 
VAACAQTVVSLAAAGQPTPPTSPE [CEBPD] | 5 ± 0.78 | 5.29 ± 0.33 |  | 
KTKEVQHNCQLHRISFCADDKTDK [GULP1] | 4.66 ± 0.36 | 4.71 ± 0.21 |  | 
GSINLLESPQLATLAEDVTAALAK [MAP2] | 4.12 ± 0.066 | 4.05 ± 0.27 |  | 
RQKGTGKEYAAKFIKKRRLSSSRR [DAPK3] | 4.2 ± 0.24 | 4.5 ± 0.29 |  | 
EFLWGPRAHAEIRKMSLLKFLAKV [MAGEA10] | 2.38 ± 0.3 | 2.66 ± 0.17 |  | 
LRYQETPGPREALSQLRVLCCEWL [ZNF232] | 2.13 ± 0.23 | 2.29 ± 0.22 |  | 
KRSSLPRPSSILPPRRGVSGDRDE [MAP2] | 5.04 ± 0.24 | 5.16 ± 0.3 |  | 
TTTTFPMSNHTRERVTVAKLTLEN [STK38L] | 3.52 ± 0.26 | 3.5 ± 0.18 |  | 
KILPWSPEKIGTRFLLYTNENPNN [PNLIPRP1] | 2.56 ± 0.28 | 2.89 ± 0.28 |  | 
MRVGPVRSAMSGASQPRGPALLFP [TRIB1] | 3.48 ± 0.65 | 3.08 ± 0.24 |  | 
PVTICCGHSFCRPCLCLSWEEAQS [TRIM43] | 2.61 ± 0.35 | 2.95 ± 0.36 |  | 
QSHPHLVAEAFRALASAQCPQFGI [SPOPL] | 2.35 ± 0.4 | 2.16 ± 0.023 |  | 
